Common to all, as to format: biochemical, Streptomyces coelicolor
Substrate in series [1]: CCCCC(=O)Oc1ccc([N+](=O)[O-])cc1
The series can be described thus: purified protein. As to conditions: 50 mM Tris-HCl pH 8.5, 0.1% Triton X-100, 35°C, fitted below substrate-inhibiting concentrations.

Substrate in series [2]: CC(=O)Oc1ccc([N+](=O)[O-])cc1
The series can be described thus: purified protein. As to conditions: 50 mM Tris-HCl pH 8.5, 0.1% Triton X-100, 35°C, fitted below substrate-inhibiting concentrations.

Substrate in series [3]: CCCCCC(=O)Oc1ccc([N+](=O)[O-])cc1
The series can be described thus: purified protein. To be noted: 50 mM Tris-HCl pH 8.5, 0.1% Triton X-100, 35°C, fitted below substrate-inhibiting concentrations.

Substrate in series [4]: CCCC(=O)Oc1ccc([N+](=O)[O-])cc1
Nature of the series: purified protein. To be noted: 50 mM Tris-HCl pH 8.5, 0.1% Triton X-100, 35°C, fitted below substrate-inhibiting concentrations.

Substrate in series [5]: CCCCCCCC(=O)Oc1ccc([N+](=O)[O-])cc1
The series can be described thus: purified protein. To be noted: 50 mM Tris-HCl pH 8.5, 0.1% Triton X-100, 35°C, fitted below substrate-inhibiting concentrations.

Substrate in series [6]: CCCC(=O)OCC(COC(=O)CCC)OC(=O)CCC
Nature of the series: pH-stat titration of released fatty acid. As to conditions: 5 mM Tris-HCl pH 8.5, 1% arabic gum emulsion, 35°C. The text has this: (§1) pH-stat titration of released fatty acid on EstC

Substrate in series [7]: CC(=O)OCC(COC(C)=O)OC(C)=O
The series can be described thus: pH-stat titration of released fatty acid. As to conditions: 5 mM Tris-HCl pH 8.5, 1% arabic gum emulsion, 35°C.
Text: as §1

B1: EstC (Streptomyces coelicolor A3(2)) (protein)
chain: MSRNAAFSPPPSARAYRLRTARGEFAVVDSPAAAGVAPRGVVMMLPGFTGSKEDFTLLHRPLGARGYRTVAVDGRGQYESDGPEHDESAYARPELARDVLAQAAALGTRVHLVGHSLGGQIARAAVLLDPAPFLSLTLMSSGPARISESQRQRVKLLRDALDTMTMAEVWEVMQAMGPPEEAGAPAPAHGPEDRVRLRDRWLGTRPAQLLATGGQLCTEPDRVAELAAVPLPFHVLSGTYDDTWPVPLLDEMALRLDARRTVVAGAEHSPNTDQPLPTARALADFWDDHPVPPRPYVR
notes: full-length ORF, no signal peptide, N-terminal His-tag (pET16b) kept, E. coli BL21(DE3), IMAC; 34665 Da with tag without initiator Met
Consider B1, for which the Km stood at 270 ± 30 µM in “purified protein [1]”; 2900 ± 800 µM in “purified protein [2]”; 71 ± 4 µM in the series “purified protein [3]”; 840 ± 50 µM in the series “purified protein [4]”; 110 ± 18 µM in “purified protein [5]”; 620 ± 300 µM in series [6]. The Michaelis-Menten constant (Km) in series [7] came out at 90000 ± 1000 µM. The kcat in “purified protein [1]” was found to be 199 ± 6 s⁻¹; in “purified protein [2]” it was 451 ± 10 s⁻¹; in “purified protein [3]”, 41 ± 1 s⁻¹; in “purified protein [4]”, 124 ± 2 s⁻¹; in “purified protein [5]”, 58 ± 3 s⁻¹; in series [6], 14 ± 1 s⁻¹. For the same protein, in series [7], the kcat amounted to 151 ± 2 s⁻¹. Further, the kcat/Km in “purified protein [1]” was found to be 737000 ± 77000 M⁻¹ s⁻¹; in the series “purified protein [2]”, 156000 ± 41000 M⁻¹ s⁻¹; in “purified protein [3]”, 578000 ± 36000 M⁻¹ s⁻¹; in the series “purified protein [4]” it was 148000 ± 10000 M⁻¹ s⁻¹; in “purified protein [5]” it was 527000 ± 90000 M⁻¹ s⁻¹; in series [6] it was 23000 ± 12000 M⁻¹ s⁻¹. Moreover, the kcat/Km in series [7] was 1700 ± 30 M⁻¹ s⁻¹.

As usually defined, the Km is the substrate concentration at which the rate is half of its maximum. For orientation: kcat means the maximal rate divided by the concentration of active sites. One may read the kcat/Km as the turnover number divided by the Michaelis constant.

These data come from publication PMC3292560, “Isolation and Characterization of EstC, a New Cold-Active Esterase from Streptomyces coelicolor A3(2)” (PLoS ONE, 2012).
